1 substance from article PMC5388508 can be followed below.

The target in test [1] is integrin αIIbβ3 of human platelets (human (endogenous in platelets)) (UniProt P08514).
For test [2] the target is unchanged. The experiment in a line: flow cytometry on cells. In general terms: Flow cytometry measures light scatter and fluorescence of single cells or particles in a stream.

“Rhodostomin (Rho), recombinant, ^48PRGDMP-^65PRYH (natural protein)” returned an IC50 of inhibition of platelet aggregation in test [1] of 83.2 nM. This substance also displayed an IC50 in test [2] of 90.8 nM.

In general, IC50 refers to the midpoint of a concentration-inhibition curve.
